Patent EP2411513B1

Biological target: CD11b/CD18 receptor on J774A.1 murine monocytes/macrophages (murine) (UniProt P05555)
Assay: cell-based or functional assay

CyaA/233OVA/K860R/AC- (from UniProt J7QLC0 1-1706)
Lysis of J774A.1 cells (% of AC-): 72 % of AC-
